{"source": "patent EP0910659B1", "about": "“ANTIBODIES AGAINST A COMPLEX OF CD4 AND A CHEMOKINE RECEPTOR DOMAIN, AND THEIR USE AGAINST HIV INFECTIONS” (United Biomedical, Inc., priority 1996, dated 1997)", "key": {"[1]": {"biological_target": "recombinant soluble CD4 (rsCD4) (human)", "assay": "rsCD4 ELISA"}, "[2]": {"biological_target": "CD4 on the surface of CD4-expressing cells (host cell antigen complex comprising CD4) (human)", "assay": "cell-based or functional assay"}, "[3]": {"biological_target": "recombinant soluble CD4 (rsCD4) (human)", "assay": "ELISA, rsCD4-coated wells"}, "[4]": {"biological_target": "rsCD4 preincubated with CC-CKR5 domain 3 peptide p2047a (human) (UniProt P51681)", "sequence (P51681 168-199, form in doubt)": "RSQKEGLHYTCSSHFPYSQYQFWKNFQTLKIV", "assay": "ELISA, rsCD4/CC-CKR5-D3 coated wells"}, "[5]": {"biological_target": "CD4 on the surface of CD4-expressing cells (host cell antigen complex comprising CD4) (human)", "assay": "indirect immunofluorescence, HPB-ALL cells"}, "[6]": {"biological_target": "CD4 on the surface of CD4-expressing cells (host cell antigen complex comprising CD4) (human)", "assay": "SUP-T cells, biotinylated B4, no competitor"}, "[7]": {"biological_target": "recombinant soluble CD4 (rsCD4) (human)", "assay": "rsCD4 ELISA, purified B4 2 µg/mL, no competitor"}, "[8]": {"biological_target": "CD4 on the surface of CD4-expressing cells (host cell antigen complex comprising CD4) (human)", "assay": "HPB-ALL cells, biotinylated B4 0.71 µg/mL, no competitor"}, "[9]": {"biological_target": "CD4 on the surface of CD4-expressing cells (host cell antigen complex comprising CD4) (human)", "assay": "HPB-ALL cells, biotinylated B4 1:1000 + FITC-avidin, no competitor"}, "[10]": {"biological_target": "rsCD4 preincubated with CC-CKR5 domain 3 peptide p2047a (human) (UniProt P51681)", "assay": "ratio of the rsCD4 IC50 values of the two ELISA inhibition assays"}, "[11]": {"biological_target": "CD4 on the surface of CD4-expressing cells (host cell antigen complex comprising CD4) (human)", "assay": "HPB-ALL cells pre-incubated with MAb 10 µg/mL; competitor biotinylated B4"}, "[12]": {"biological_target": "CD4 on the surface of CD4-expressing cells (host cell antigen complex comprising CD4) (human)", "assay": "HPB-ALL cells pre-incubated with MAb 50 µg/mL, then gp120-FITC (competitor)"}, "[13]": {"biological_target": "CD4 on the surface of CD4-expressing cells (host cell antigen complex comprising CD4) (human)", "assay": "indirect immunofluorescence, HPB-ALL cells pre-incubated with gp120 (competitor)"}, "[14]": {"biological_target": "rsCD4 preincubated with CC-CKR2b domain 2 peptide p2087a (human) (UniProt P41597)", "assay": "ELISA, rsCD4 0.25 µg/mL preincubated with peptide, B4 0.1 µg/mL; against rsCD4 alone"}, "[15]": {"biological_target": "rsCD4 preincubated with CC-CKR2b domain 3 peptide p2088a (human) (UniProt P41597)", "sequence (P41597 182-207, form in doubt)": "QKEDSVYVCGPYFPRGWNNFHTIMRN", "assay": "ELISA, rsCD4 0.25 µg/mL preincubated with peptide, B4 0.1 µg/mL; against rsCD4 alone"}, "[16]": {"biological_target": "rsCD4 preincubated with CC-CKR3 domain 4 peptide p2082a (human) (UniProt P51677)", "assay": "ELISA, rsCD4 0.25 µg/mL preincubated with peptide, B4 0.1 µg/mL; against rsCD4 alone"}, "[17]": {"biological_target": "rsCD4 preincubated with CC-CKR5 domain 3 peptide p2047a (human) (UniProt P51681)", "assay": "ELISA, rsCD4 0.25 µg/mL preincubated with peptide, B4 0.1 µg/mL; against rsCD4 alone"}, "[18]": {"biological_target": "recombinant soluble CD4 (rsCD4) (human)", "assay": "direct ELISA, rsCD4 wells pretreated with p1624a; B4-HRP 50 µg/mL, PBS instead of competitor"}, "[19]": {"biological_target": "recombinant soluble CD4 (rsCD4) (human)", "assay": "competition ELISA, rsCD4 wells pretreated with p1624a; MAb 50 µg/mL; competitor B4-HRP 50 µg/mL"}}, "data": [{"substance": "monoclonal antibody B4", "values": [{"measurement": "A492 nm reactivity to rsCD4", "setting": "[1]", "value": 1.42, "unit": "A492"}, {"measurement": "50% Inhbt., HIV-1 primary isolate 23135, MT-2 Microplaque Neutralization Assay", "setting": "[2]", "value": 0.21, "unit": "µg/mL"}, {"measurement": "50% Inhbt., HIV-1 primary isolate BR014, MT-2 Microplaque Neutralization Assay", "setting": "[2]", "value": 0.19, "unit": "µg/mL"}, {"measurement": "50% end point for neutralization of HIV-1 primary isolate (23135)", "setting": "[2]", "value": 0.21, "unit": "µg/mL"}, {"measurement": "90% Inhbt., HIV-1 primary isolate 23135, MT-2 Microplaque Neutralization Assay", "setting": "[2]", "value": 1.54, "unit": "µg/mL"}, {"measurement": "90% Inhbt., HIV-1 primary isolate BR014, MT-2 Microplaque Neutralization Assay", "setting": "[2]", "value": 1.63, "unit": "µg/mL"}, {"measurement": "HIV-1 DH-12 (chimp PBL-grown), PBMC Infection Reduction Assay", "setting": "[2]", "value": 3, "unit": "logs killed"}, {"measurement": "HIV-1 DH-12, 50% Inhib, MT-2 Microplaque Assay", "setting": "[2]", "value": 0.33, "unit": "µg/mL"}, {"measurement": "HIV-1 DH-12, 90% Inhib, MT-2 Microplaque Assay", "setting": "[2]", "value": 2.1, "unit": "µg/mL"}, {"measurement": "HIV-2 287, PBMC Infectivity Reduction Assay with MAb B4 at 10 µg/mL", "setting": "[2]", "value": 1.5, "unit": "logs killed"}, {"measurement": "HIV-2 ROD, 50%, MT2 Microplaque Neutralization Assay", "setting": "[2]", "value": 0.7, "unit": "µg/mL"}, {"measurement": "HIV-2 ROD, 90%, MT2 Microplaque Neutralization Assay", "setting": "[2]", "value": 8.5, "unit": "µg/mL"}, {"measurement": "SHIV 89.6, 50%, p27 Antigen Neutralization Assay", "setting": "[2]", "value": 0.088, "unit": "µg/mL"}, {"measurement": "SHIV IIIB, 50%, p27 Antigen Neutralization Assay", "setting": "[2]", "value": 0.679, "unit": "µg/mL"}, {"measurement": "SIV239, 50%, p27 Antigen Neutralization Assay", "setting": "[2]", "value": 1.3, "unit": "µg/mL"}, {"measurement": "SIV251 (huPBMC), 80%, p27 Antigen Neutralization Assay", "setting": "[2]", "value": 1, "unit": "µg/mL"}, {"measurement": "SIV251, 50%, p27 Antigen Neutralization Assay", "setting": "[2]", "value": 2, "unit": "µg/mL"}, {"measurement": "endpoint binding concentration (OD492nm reading of 1.0)", "setting": "[3]", "value": 2, "unit": "µg/mL"}, {"measurement": "endpoint binding concentration (OD492nm reading of 1.0)", "setting": "[4]", "value": 0.1, "unit": "µg/mL"}, {"measurement": "% of HPB-ALL cells reactive", "setting": "[5]", "value": "> 90", "unit": "%"}, {"measurement": "positive rate", "setting": "[6]", "value": 95, "unit": "%"}, {"measurement": "A492 nm", "setting": "[7]", "value": 0.679, "unit": "A492"}, {"measurement": "% Positive cells", "setting": "[8]", "value": "> 95", "unit": "%"}, {"measurement": "% Positive cells", "setting": "[9]", "value": "> 95", "unit": "%"}, {"measurement": "Intensity of staining", "setting": "[9]", "value": 2}, {"measurement": "fold improvement of affinity over MAb B4 for rsCD4 alone", "setting": "[10]", "value": 15, "unit": "fold"}, {"measurement": "% Positive cells (biotinylated B4 staining)", "setting": "[11]", "value": 0, "unit": "%"}, {"measurement": "Intensity of staining (biotinylated B4)", "setting": "[11]", "value": 0}, {"measurement": "% of cells stained by gp120-FITC after prior binding with MAb", "setting": "[12]", "value": 0, "unit": "%"}, {"measurement": "% of cells reactive after prior binding of gp120", "setting": "[13]", "value": "> 90", "unit": "%"}, {"measurement": "degree of enhancement of MAb B4-rsCD4 binding (grade 0 to 8)", "setting": "[14]", "value": "> 4 +"}, {"measurement": "degree of enhancement of MAb B4-rsCD4 binding (grade 0 to 8)", "setting": "[15]", "value": "> 4 +"}, {"measurement": "degree of enhancement of MAb B4-rsCD4 binding (grade 0 to 8)", "setting": "[16]", "value": "8 +"}, {"measurement": "degree of enhancement of MAb B4-rsCD4 binding (grade 0 to 8)", "setting": "[17]", "value": "5 +"}, {"measurement": "A492 nm", "setting": "[18]", "value": 1.66, "unit": "A492"}, {"measurement": "% Inhibition", "setting": "[19]", "value": 80, "unit": "%"}, {"measurement": "A492 nm (B4-HRP signal)", "setting": "[19]", "value": 0.338, "unit": "A492"}]}]}
